± gives the uncertainty stated by the source.
B1: Far upstream element-binding protein 3, residues 75 to 150; numbered along this chain, Q96I24 (parent)
chain: RTVITEEFKVPDKMVGFIIGRGGEQISRIQAESGCKIQIASESSGIPERPCVLTGTPESIEQAKRLLGQIVDRCRN

Variants of: B1
Experiment: abundance fitness (aPCA) (normalised: wild type 0, dead -1); higher = more abundant; growth selection in yeast, the domain comes from the species named
Details: Homo sapiens

Point of comparison: R1V, abundance fitness -0.043 ± 0.042. Against it:
- E24A — within error, -0.008 ± 0.033
- E24T — within error, 0.008 ± 0.038
- E24W — higher, 0.222 ± 0.032
- E24C — within error, 0.031 ± 0.042
- E24P — lower, -0.271 ± 0.045
- P57G — within error, -0.113 ± 0.032
- P57A — within error, -0.013 ± 0.038
- P57W — within error, -0.073 ± 0.04
- P50T — within error, -0.053 ± 0.035
- P50F — within error, -0.119 ± 0.052
- R49W — lower, -0.271 ± 0.034
- R49K — within error, -0.099 ± 0.047
- R49S — lower, -0.141 ± 0.036
- V3D — within error, -0.111 ± 0.049
- V3C — within error, -0.081 ± 0.044
- E6C — within error, -0.022 ± 0.041
- E6W — lower, -0.375 ± 0.033
- E6L — lower, -0.235 ± 0.03
- E6Q — within error, -0.068 ± 0.041
- E6S — within error, -0.042 ± 0.032
- T54D — lower, -0.187 ± 0.077
- T54H — within error, -0.01 ± 0.079
- T54V — within error, -0.044 ± 0.041
- I19Q — within error, -0.048 ± 0.041
- I26C — lower, -0.21 ± 0.047
- I26D — lower, -0.518 ± 0.052
- I26N — lower, -0.538 ± 0.08
- Q38W — within error, -0.107 ± 0.032
- Q38R — within error, -0.055 ± 0.027
- T56G — lower, -0.232 ± 0.025
- T56H — within error, -0.106 ± 0.051
- T56E — within error, -0.08 ± 0.032
- T56M — lower, -0.183 ± 0.038
- C35V — lower, -0.157 ± 0.032
- A31Y — within error, -0.076 ± 0.05
- A31K — within error, 0.033 ± 0.041
- A31F — within error, -0.127 ± 0.055
- G16Q — within error, -0.027 ± 0.039
- G16P — within error, -0.029 ± 0.041
- G16W — lower, -0.21 ± 0.038
- Q25Y — lower, -0.197 ± 0.06
- Q25S — within error, -0.026 ± 0.034
- Q25F — within error, -0.105 ± 0.082
- Q25C — within error, -0.025 ± 0.041
- R65S — within error, -0.026 ± 0.035
- E58H — lower, -0.226 ± 0.087
- E58W — lower, -0.161 ± 0.04
- E58N — within error, -0.091 ± 0.093
- I29V — within error, -0.049 ± 0.027
- I29R — lower, -0.856 ± 0.033
- I29F — lower, -0.278 ± 0.054
- I37P — lower, -0.609 ± 0.048
- I37W — lower, -0.955 ± 0.044
- C51L — within error, -0.062 ± 0.035
- C51Q — lower, -0.688 ± 0.066
- C51W — lower, -0.147 ± 0.034
- I46K — within error, -0.003 ± 0.043
- I46G — within error, 0.011 ± 0.026
- T2I — within error, 0.038 ± 0.058
- T2K — within error, 0 ± 0.043
- I60A — lower, -0.542 ± 0.037
- I60T — lower, -0.223 ± 0.043
- Q30N — lower, -0.369 ± 0.066
- L67C — lower, -0.397 ± 0.046
- F8M — within error, -0.083 ± 0.045
- G34F — lower, -0.292 ± 0.07
- G34P — lower, -0.775 ± 0.067
- G34N — within error, -0.046 ± 0.11
- G34E — within error, -0.089 ± 0.033
- V71N — within error, -0.072 ± 0.054
- V71H — lower, -0.21 ± 0.054
- M14P — lower, -0.451 ± 0.05
- M14H — within error, -0.089 ± 0.055
- D12E — within error, -0.053 ± 0.036
- D12Y — within error, -0.116 ± 0.073
- S41Q — within error, 0.012 ± 0.041
- R21S — within error, 0.005 ± 0.034
- R21V — within error, -0.057 ± 0.029
- I39M — within error, -0.067 ± 0.035
- G20N — within error, -0.17 ± 0.09
- R75I — within error, -0.107 ± 0.067
- R75D — within error, -0.082 ± 0.058
- R28P — lower, -0.617 ± 0.052
